From US20170168078A1 (EISAI R AND D MANAGEMENT, published 2017)
Values belong to the binder of their own block, whether it stands above or below them.

Key:
[1] = biological target: T1, purified recombinant human folate receptor alpha (rh-FRα) (human, UniProt P15328 25-234); assay: SPR, BIACORE T100, antibody captured on anti-mouse IgG, rh-FRα 1-30 nM as analyte, single-cycle kinetics, 1:1 fit
T1 construct: One is secreted from CHO cells, with a human Ig kappa leader and a C-terminal 6x His tag replacing the GPI attachment site; The other is from Sf9 cells, with an N-terminal 6x His tag and the GPI site intact; also called FR-alpha; FOLR1
Procedure: Binding characteristics of the purified monoclonal antibodies to FRα were determined by surface plasmon resonance (SPR) experiments. All of the SPR experiments were performed at 25° C. using a BIACORE™ T100 with research grade CM5 chips (GE Healthcare), as specified by the manufacturer. Initially, anti-mouse IgG provided in the mouse antibody capture kit (GE Healthcare) was immobilized by amide coupling to CM5 sensor chips. Mouse anti-FRα monoclonal antibodies (26B3, 24F12, 19D4, or 9F3) were captured on individual flow cells per binding cycle, while the fourth flow cell was used as a reference. Binding experiments were performed with HBS-P (GE Healthcare) as running buffer and at a flow rate of 30 μL/min. Each monoclonal antibody sample (0.5 μg/mL) was injected for 3 minutes to capture the antibody. Various concentrations of purified recombinant human FRα (rh-FRα) (1 nM-30 nM) were then injected over the FRα-specific and reference surfaces for 3 minutes to record binding sensograms using a single-cycle kinetics method. The dissociation profile was monitored for 25 minutes. In between bindings, the surface was regenerated with a 30 μl injection of 10 mM glycine (pH 1.7). The sensograms were processed and fitted to a 1:1 Langmuir binding model using BIACORE™ T100 evaluation software (version 2.0.1).

[2] = biological target: T2, purified recombinant human FRβ; assay: western blot of 0.5 µg purified protein per lane, reduced and nonreduced, SDS-PAGE
T2 construct: also called human folate receptor beta (purified, secreted form)
Procedure: (§1) Experiments were conducted to determine whether any of the FRα-specific antibodies, described above, could recognize denatured forms of FRα. […] Lysates were pre-cleared by centrifugation at 13,000 rpm for 15 minutes to remove debris. For reduced and denatured samples, equal amounts of protein (20 μg) were boiled for 10 minutes in NUPAGE® LDS sample buffer (Invitrogen) containing 5% β-mercaptoethanol+40 mM DTT. […] The membrane was blocked in PBST+ 5% non-fat milk for lh at room temperature after which time, the membrane was washed twice with PBST. Immunoblotting was conducted using purified mouse monoclonal antibodies 9F3, 19D4, 24F12, or 26B3 (1 μg/mL) specific for FRα, which were detected with a goat-anti-mouse HRP-conjugated antibody and visualized using SUPERSIGNAL™ West Pico chemiluminescent substrate (Pierce, Rockford, Ill.). Luminescence was visualized using the Omega 12iC molecular imaging system (Ultra-Lum, Claremont, Calif.) with image analysis performed using ULTRAQUANT™ 6.0 software (Ultra-Lum).
(§2) Western blot analyses were also performed using purified folate receptor preparations. For these experiments, 0.5 μg of purified human FRα, β, Γ or Δ, produced as described in Example 1, were incubated in 1× SDS-PAGE sample loading buffer (Invitrogen) with or without 20 mM DTT, boiled for 10 min, and electrophoresed on 4-12% gradient SDS-PAGE gels. Protein was transferred to PVDF membrane and blots probed as described above. Gels were run using Benchmark™ prestained protein ladder (NOVEX®). Gels using purified recombinant FR proteins were also visualized via silverstaining to ensure equal amounts of protein were loaded.

[3] = biological target: T3, purified recombinant human FRΓ; assay: as above
T3 construct: also called human folate receptor gamma (purified)
Procedure: as §1, §2

[4] = biological target: T4, human FRα expressed on CHO cells (GPI-linked) (human, UniProt P15328 25-234); assay: flow cytometry on CHO cells expressing FRα, antibody 1 µg/mL, FITC secondary
T4 construct: CHO/CHOK1 cells stably expressing GPI-linked human FRα; They were used intact in flow cytometry and as nonreduced whole cell lysates in the western blots; also called native FRα; CHO-FRα
Procedure: Flow cytometry studies were conducted to assess the ability of selected FRα-specific antibodies to bind to the native protein. For these studies Chinese hamster ovary (CHO) cells expressing FRα, were harvested, washed, and re-suspended in ice-cold growth media (RPMI supplemented with 10% FBS). Cells were incubated for 1 hour on ice with 9F3, 19D4, 24F12, or 26B3 (1 μg/mL), washed and then incubated with FITC-conjugated secondary antibodies [dilution 1:100] (Southern Biotech, Birmingham, Ala.). Prior to analysis, cells were labeled with 7-amino-actinomycin D (7-AAD) (BD Biosciences, Franklin Lakes, N.J.) for the exclusion of nonviable cells. CHO cells not expressing FRα were also subjected to the same experimental procedures, as a negative control. Cells were analyzed on an […]™ Flow Cytometer (GUAVA® Technologies, Hayward, Calif.). The data provided in Table 4 indicate that all four antibodies are capable of binding native FRα.

[5] = biological target: T5, human folate receptor beta (FRβ) expressed on CHO cells (human, UniProt P14207 17-230); assay: western blot of nonreduced whole cell lysates of CHO cells, SDS-PAGE
T5 construct: whole, on cells; also called CHO-FRβ
T5 sequence (P14207 17-230): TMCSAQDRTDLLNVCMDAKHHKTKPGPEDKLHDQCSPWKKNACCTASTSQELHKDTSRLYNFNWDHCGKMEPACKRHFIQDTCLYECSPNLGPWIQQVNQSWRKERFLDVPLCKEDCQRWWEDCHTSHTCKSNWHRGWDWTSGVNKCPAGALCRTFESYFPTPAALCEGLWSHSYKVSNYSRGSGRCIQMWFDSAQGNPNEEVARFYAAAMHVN

T3 sequence (chain, as listed by the source limits assumed): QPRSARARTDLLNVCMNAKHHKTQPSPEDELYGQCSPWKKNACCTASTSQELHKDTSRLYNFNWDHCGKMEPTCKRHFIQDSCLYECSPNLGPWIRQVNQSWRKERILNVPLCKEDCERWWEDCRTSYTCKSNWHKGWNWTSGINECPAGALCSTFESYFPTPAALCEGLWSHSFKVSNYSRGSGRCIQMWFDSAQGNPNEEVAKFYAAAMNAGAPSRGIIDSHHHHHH
T2 sequence (chain, as listed by the source limits assumed): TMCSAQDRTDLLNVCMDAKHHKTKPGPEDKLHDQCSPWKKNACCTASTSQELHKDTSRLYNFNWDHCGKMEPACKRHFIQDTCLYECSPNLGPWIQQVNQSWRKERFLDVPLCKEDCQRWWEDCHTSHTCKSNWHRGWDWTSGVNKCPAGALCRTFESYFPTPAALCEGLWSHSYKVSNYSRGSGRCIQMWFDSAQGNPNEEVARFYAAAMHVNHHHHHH
T4 sequence (P15328 25-234 limits assumed): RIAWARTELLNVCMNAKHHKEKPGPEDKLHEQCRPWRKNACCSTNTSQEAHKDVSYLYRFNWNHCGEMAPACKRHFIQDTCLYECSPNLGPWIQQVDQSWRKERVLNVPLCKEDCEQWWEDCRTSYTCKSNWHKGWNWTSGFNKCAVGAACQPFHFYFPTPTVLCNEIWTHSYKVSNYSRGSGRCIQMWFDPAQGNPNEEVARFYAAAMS
T1 sequence (P15328 25-234 limits assumed): as above

B2: Monoclonal antibody 9F3.H9.H3.H3.B5.G2 (antibody, mouse IgG2a, V domains shown)
VH: ESGPGLVRPSQSLSLTCSVTGYSITSGYYWNWIRQFPGSRLEWMGYIKSDGSNNYNPSLKNRISITRDTSKNQFFLKLNSVTTEDTATYFCTREWKAMDYWGQGTSVTVSS
VL: PAIMSASPGEKVTMTCRASSTVSYSYLHWYQQKSGASPQLWIYGTSNLASGVPARFSGSGSGTSYSLTISSVEAEDAATYYCQQYSGYPLTFGAGTKLELKR
notes: also called ATCC PTA-11887
- binding result [5]: no binding (tested: 1 µg/mL)
- Kd [1]: 715 pM
- koff [1]: 0.00031 s⁻¹
- kon [1]: 434000 M⁻¹ s⁻¹
- binding result [2]: no binding (tested: 1 µg/mL)
- Geometric Mean [4]: 760

B4: Monoclonal antibody 26B3.F2 (antibody, mouse IgG1, V domains shown)
VH: GPELVKPGASVKISCKASDYSFTGYFMNWVMQSHGKSLEWIGRIFPYNGDTFYNQKFKGRATLTVDKSSSTAHMELRSLASEDSAVYFCARGTHYFDYWGQGTTLTVSS
VL: PASLSASVGETVTITCRTSENIFSYLAWYQQKQGISPQLLVYNAKTLAEGVPSRFSGSGSGTQFSLKINSLQPEDFGSYYCQHHYAFPWTFGGGSKLEIKR
notes: also called MAb 26B3; ATCC PTA-11885
- binding result [5]: no binding (tested: 1 µg/mL)
- Kd [1]: 27.3 pM
- koff [1]: 1.43e-05 s⁻¹
- kon [1]: 524000 M⁻¹ s⁻¹
- binding result [2]: no binding (tested: 1 µg/mL)
- binding result [3]: no binding (tested: 1 µg/mL)
- Geometric Mean [4]: 854

More lines, in order of falling Kd [1], values ahead:

- Kd [1]: 567 pM
- koff [1]: 0.000242 s⁻¹
- kon [1]: 427000 M⁻¹ s⁻¹
- binding result [2]: no binding (tested: 1 µg/mL)
- binding result [3]: no binding (tested: 1 µg/mL)
- Geometric Mean [4]: 1130
B1: Monoclonal antibody 19D4.B7 (antibody, mouse IgG2a, V domains shown)
VH: GAELVKPGASVKLSCTASGFNIKHPYMHWVKQRPDQGLEWIGRIDPANGNTKYDPKFQGKATITADTSSNTAYLQLSSLTSEDTAVYYCGREEVADYTMDYWGQGTSVTVSS
VL: PASLAVSLGQRATISCRASESVDTYGNNFIHWYQQKPGQPPKLLIYLASNLESGVPARFSGSGSRTDFTLTIDPVEADDAATYYCQQNNGDPWTFGGGTKLEIKR
notes: It was labelled with Ru (about 13 labels per IgG) when used as the detector in the ECL assays; also called ATCC PTA-11884

- binding result [5]: no binding (tested: 1 µg/mL)
- Kd [1]: 102 pM
- koff [1]: 3.99e-05 s⁻¹
- kon [1]: 393000 M⁻¹ s⁻¹
- binding result [2]: no binding (tested: 1 µg/mL)
- binding result [3]: no binding (tested: 1 µg/mL)
- Geometric Mean [4]: 777
B3: Monoclonal antibody 24F12.B1 (antibody, mouse IgG1, V domains shown)
VH: SGGGLVRPGGSLKLSCAASGFTFSSYAMSWVRQSPEKRLEWVAEIGSGGSYTYYPDTVTGRFTISRDNAKSTLYLEMSSLRSEDTAIYYCARETTAGYFDYWGQGTTLTVSS
VL: TSSLSASLGDRVTISCSASQGINNFLNWYQQKPDGTVKLLIYYTSSLHSGVPSRFSGSGSGTDYSLTISNLEPEDIAIYYCQHFSKLPWTFGGGTKLEIKR
notes: also called ATCC PTA-11886
